Data from publication PMC10450692.
Blank lines part the entries; values can stand above or below the substance they belong to.

Tests used:
Experiment in all cases: native MS; native nanoESI ion mobility MS (Synapt G2-S), 20 μM peptide in 200 mM ammonium acetate pH 6.8, positive ion mode, 25 °C source temperature; self-association of SEC-purified monomer
Aβ(1–16) = biological target: Aβ(1–16)
Aβ(1–28) = biological target: Aβ(1–28)
Aβ(1–38) = biological target: Aβ(1–38)
[1] = biological target: Aβ(1–40)CC (A21C and A30C double mutant with an intramolecular disulfide bond)
[2] = biological target: amyloid-β peptide Aβ(1–40)
scrambled Aβ(1–40) = biological target: scrambled Aβ(1–40)

Substance: Aβ(1–16) (peptide)
stoichiometry N (Aβ(1–16)): 2

Substance: Aβ(1–28) (peptide)
stoichiometry N (Aβ(1–28)): 6

Substance: Aβ(1–38) (peptide)
stoichiometry N (Aβ(1–38)): > 6

Substance: Aβ(1–40)CC (A21C and A30C double mutant with an intramolecular disulfide bond) (peptide)
stoichiometry N [1]: > 10

The remaining lines, values ahead:

stoichiometry N [2]: > 8
Substance: amyloid-β peptide Aβ(1–40)

stoichiometry N (scrambled Aβ(1–40)): 2
Substance: scrambled Aβ(1–40) (peptide)
